{"source": "paper PMC4148193", "about": "“Chromatin Insulator Factors Involved in Long-Range DNA Interactions and Their Role in the Folding of the Drosophila Genome” (PLoS Genetics, 2014)", "binders": {"B1": {"name": "DNAS (dsDNA)", "DNA 1": "AGAAGTCAGCGCGATAGCATCGATATTTTCGTGACACGCTTGTCATCCGATAGGTAGT", "DNA 2": "ACTACCTATCGGATGACAAGCGTGTCACGAAAATATCGATGCTATCGCGCTGACTTCT"}}, "key": {"[1]": {"target": "T1, BEAF32 (BEAF32B);Chromator-C (Drosophila;Drosophila, UniProt Q94513;Q86BS3 1-282;601-926, |)", "T1 sequence 1": "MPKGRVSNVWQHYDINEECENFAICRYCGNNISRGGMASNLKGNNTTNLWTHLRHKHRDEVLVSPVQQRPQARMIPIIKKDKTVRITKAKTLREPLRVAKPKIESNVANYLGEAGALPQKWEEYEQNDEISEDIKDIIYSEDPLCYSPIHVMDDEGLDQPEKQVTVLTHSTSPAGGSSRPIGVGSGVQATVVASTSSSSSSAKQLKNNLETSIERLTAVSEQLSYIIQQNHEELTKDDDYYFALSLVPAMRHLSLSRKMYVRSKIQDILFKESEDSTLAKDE", "T1 sequence 2": "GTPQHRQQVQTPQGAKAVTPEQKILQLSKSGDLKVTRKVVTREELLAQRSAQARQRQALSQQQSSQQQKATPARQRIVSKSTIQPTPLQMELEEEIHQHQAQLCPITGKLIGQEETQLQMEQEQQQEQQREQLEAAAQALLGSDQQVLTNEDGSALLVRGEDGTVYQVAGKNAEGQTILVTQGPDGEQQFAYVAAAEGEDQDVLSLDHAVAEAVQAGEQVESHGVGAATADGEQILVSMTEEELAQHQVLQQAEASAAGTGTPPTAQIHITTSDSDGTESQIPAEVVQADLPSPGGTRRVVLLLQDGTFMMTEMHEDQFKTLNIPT", "experiment": "FCS/PIE-FCCS; 800 nM BEAF32, 100 nM Chromator-C; diffusion time slightly decreased, BEAF32 stays bound, no bridging; FA/FCS: 30 mM Tris/HCl pH 7.5, 100 mM NaCl, 20 uM ZnSO4, 5 mM mercaptoethanol, 0.01 mg/ml BSA, 0.004% Tween20, 2.5 nM DNA; EMSA: 150 mM NaCl, 30 mM Tris/HCl pH", "settings": "protein: recombinant;recombinant; tags: N-term MBP; C-term 6xHis;N-term 6xHis; blunt"}, "[2]": {"target": "T2, Chromator-C (Drosophila, UniProt Q86BS3 601-926)", "T2 sequence": "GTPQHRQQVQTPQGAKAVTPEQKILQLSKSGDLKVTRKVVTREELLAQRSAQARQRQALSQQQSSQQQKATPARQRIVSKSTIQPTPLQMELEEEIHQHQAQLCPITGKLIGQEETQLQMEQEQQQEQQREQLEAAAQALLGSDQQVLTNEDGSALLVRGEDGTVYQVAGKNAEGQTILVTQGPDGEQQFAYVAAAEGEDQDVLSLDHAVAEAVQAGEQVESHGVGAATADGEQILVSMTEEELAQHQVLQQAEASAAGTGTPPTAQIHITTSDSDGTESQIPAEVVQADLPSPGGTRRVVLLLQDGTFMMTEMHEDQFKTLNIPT", "experiment": "fluorescence anisotropy; FA/FCS: 30 mM Tris/HCl pH 7.5, 100 mM NaCl, 20 uM ZnSO4, 5 mM mercaptoethanol, 0.01 mg/ml BSA, 0.004% Tween20, 2.5 nM DNA; EMSA: 150 mM NaCl, 30 mM Tris/HCl pH", "settings": "protein: recombinant; tags: N-term 6xHis; blunt"}, "[3]": {"target": "T3, CP190-BTB/POZ (Drosophila, UniProt Q24478 1-134)", "T3 sequence": "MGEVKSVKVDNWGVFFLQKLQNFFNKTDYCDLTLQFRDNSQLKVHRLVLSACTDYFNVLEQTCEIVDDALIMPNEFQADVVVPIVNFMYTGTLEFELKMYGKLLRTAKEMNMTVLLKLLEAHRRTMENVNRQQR", "experiment": "fluorescence anisotropy; FA/FCS: 30 mM Tris/HCl pH 7.5, 100 mM NaCl, 20 uM ZnSO4, 5 mM mercaptoethanol, 0.01 mg/ml BSA, 0.004% Tween20, 2.5 nM DNA; EMSA: 150 mM NaCl, 30 mM Tris/HCl pH", "settings": "protein: recombinant; tags: His; chain copies: 2; blunt"}, "[4]": {"target": "T4, CP190-C (Drosophila, UniProt Q24478 599-1096)", "T4 sequence": "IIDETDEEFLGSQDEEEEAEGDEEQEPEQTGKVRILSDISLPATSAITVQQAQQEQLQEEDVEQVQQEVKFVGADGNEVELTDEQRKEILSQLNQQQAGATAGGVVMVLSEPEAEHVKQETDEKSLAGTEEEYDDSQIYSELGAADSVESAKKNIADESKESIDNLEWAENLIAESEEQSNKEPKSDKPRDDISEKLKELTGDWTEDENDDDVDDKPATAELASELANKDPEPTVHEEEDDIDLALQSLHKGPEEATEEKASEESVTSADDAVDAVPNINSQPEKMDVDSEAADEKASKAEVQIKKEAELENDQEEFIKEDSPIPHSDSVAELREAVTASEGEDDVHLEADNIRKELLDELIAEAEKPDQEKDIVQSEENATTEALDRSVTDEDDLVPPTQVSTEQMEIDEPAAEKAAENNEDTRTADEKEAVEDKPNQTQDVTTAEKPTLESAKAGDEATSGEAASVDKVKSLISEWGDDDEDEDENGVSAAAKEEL", "experiment": "FCS; 50 nM; FA/FCS: 30 mM Tris/HCl pH 7.5, 100 mM NaCl, 20 uM ZnSO4, 5 mM mercaptoethanol, 0.01 mg/ml BSA, 0.004% Tween20, 2.5 nM DNA; EMSA: 150 mM NaCl, 30 mM Tris/HCl pH", "settings": "protein: recombinant; tags: N-term 6xHis; blunt"}}, "data": [{"binder": "B1", "values": [{"measurement": "binding result", "setting": "[1]", "value": "binds"}, {"measurement": "binding result", "setting": "[2]", "value": "no binding"}, {"measurement": "binding result", "setting": "[3]", "value": "no binding"}, {"measurement": "binding result", "setting": "[4]", "value": "no binding"}]}]}
